Measurements from CN117866092A (BEIJING KENUO XINCHENG TECH CO LTD, dated 2024).

Assays:
[1] = molecular target: T1, 细胞表面人CD73蛋白 (human CD73 on the cell surface) (human, UniProt P21589 27-549); test: flow cytometry on BXPC-3 cells, FITC anti-human IgG
T1 construct: whole, on cells; Endogenous CD73 on human tumour cell lines; also called 细胞表面CD73; CD73 on BXPC-3, SKOV-3, A375, MDA-MB-231 and A431 cells
T1 sequence (looked up): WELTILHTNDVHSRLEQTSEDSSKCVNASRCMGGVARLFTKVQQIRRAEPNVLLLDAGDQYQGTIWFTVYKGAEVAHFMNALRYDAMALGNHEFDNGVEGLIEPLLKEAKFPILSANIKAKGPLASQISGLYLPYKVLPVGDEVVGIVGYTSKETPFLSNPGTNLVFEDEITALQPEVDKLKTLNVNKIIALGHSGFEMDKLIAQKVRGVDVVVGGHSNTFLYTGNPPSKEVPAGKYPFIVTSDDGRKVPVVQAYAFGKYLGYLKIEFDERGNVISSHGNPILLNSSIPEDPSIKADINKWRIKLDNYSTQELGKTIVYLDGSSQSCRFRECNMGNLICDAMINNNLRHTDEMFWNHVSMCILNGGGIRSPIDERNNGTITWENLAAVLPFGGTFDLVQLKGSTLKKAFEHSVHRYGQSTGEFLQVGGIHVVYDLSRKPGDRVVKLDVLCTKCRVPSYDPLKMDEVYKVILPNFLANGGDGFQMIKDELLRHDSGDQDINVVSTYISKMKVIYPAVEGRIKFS

[2] = molecular target: T2, 人CD73-his重组蛋白(序列号:NM_002526.3，27-547aa) (human, UniProt P21589 27-547); test: BLI (Octet QKe), antibody captured on AHC sensor, 60 nM CD73-his as analyte, 1:1 fit
T2 construct: range 27-547; Transiently expressed in eukaryotic cells; also called rhCD73-his; 重组人CD73-his; not shown: his tag
T2 sequence (looked up): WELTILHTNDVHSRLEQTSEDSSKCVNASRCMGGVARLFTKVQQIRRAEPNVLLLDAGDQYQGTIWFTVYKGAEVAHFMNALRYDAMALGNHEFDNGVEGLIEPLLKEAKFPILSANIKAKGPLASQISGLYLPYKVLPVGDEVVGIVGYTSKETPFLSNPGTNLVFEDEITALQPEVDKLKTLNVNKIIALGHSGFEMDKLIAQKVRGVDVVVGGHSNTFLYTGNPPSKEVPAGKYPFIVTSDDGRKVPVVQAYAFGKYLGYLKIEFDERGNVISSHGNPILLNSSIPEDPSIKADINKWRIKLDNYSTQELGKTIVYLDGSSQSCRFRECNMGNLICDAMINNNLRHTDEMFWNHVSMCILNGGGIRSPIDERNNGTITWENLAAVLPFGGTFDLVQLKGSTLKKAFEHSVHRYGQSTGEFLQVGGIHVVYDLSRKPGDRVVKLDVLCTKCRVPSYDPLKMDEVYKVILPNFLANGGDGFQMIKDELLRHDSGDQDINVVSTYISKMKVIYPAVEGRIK

B1: MEDI9447 (antibody, V domains shown)
VH: EVQLLESGGGLVQPGGSLRLSCAASGFTFSSYAYSWVRQAPGKGLEWVSAISGSGGRTYYADSVKGRFTISRDNSKNTLYLQMNSLRAEDTAVYYCARLGYGRVDEWGRGTLVTVSS
VL: QSVLTQPPSASGTPGQRVTISCSGSLSNIGRNPVNWYQQLPGTAPKLLIYLDNLRLSGVPDRFSGSKSGTSASLAISGLQSEDEADYYCATWDDSHPGWTFGGGTKLTVLG
An EC50 [1] of 242 pM, a Kd [2] of 635 pM and a koff [2] of 0.000105 s⁻¹ were found for B1 in this work. The kon [2] was 165000 M⁻¹ s⁻¹.
